Read-outs that look alike come from different tables or passages of the source.
T1: human TNFR2 (human, UniProt P20333 23-461)
T1 construct: whole, on cells
T1 sequence (looked up): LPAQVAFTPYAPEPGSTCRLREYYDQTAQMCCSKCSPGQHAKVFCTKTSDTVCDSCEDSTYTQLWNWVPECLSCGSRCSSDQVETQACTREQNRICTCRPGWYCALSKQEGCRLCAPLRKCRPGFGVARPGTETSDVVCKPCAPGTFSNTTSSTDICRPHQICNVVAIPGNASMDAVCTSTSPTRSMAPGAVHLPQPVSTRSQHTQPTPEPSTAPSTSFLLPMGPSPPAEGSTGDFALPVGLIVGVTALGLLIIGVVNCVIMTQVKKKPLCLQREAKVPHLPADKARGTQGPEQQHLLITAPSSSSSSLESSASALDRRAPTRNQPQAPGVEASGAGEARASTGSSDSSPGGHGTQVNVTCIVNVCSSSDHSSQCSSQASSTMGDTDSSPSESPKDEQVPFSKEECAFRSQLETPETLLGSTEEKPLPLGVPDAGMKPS

T2: human TNFR14 (human, UniProt Q92956 39-283)
T2 construct: whole, on cells
T2 sequence (looked up): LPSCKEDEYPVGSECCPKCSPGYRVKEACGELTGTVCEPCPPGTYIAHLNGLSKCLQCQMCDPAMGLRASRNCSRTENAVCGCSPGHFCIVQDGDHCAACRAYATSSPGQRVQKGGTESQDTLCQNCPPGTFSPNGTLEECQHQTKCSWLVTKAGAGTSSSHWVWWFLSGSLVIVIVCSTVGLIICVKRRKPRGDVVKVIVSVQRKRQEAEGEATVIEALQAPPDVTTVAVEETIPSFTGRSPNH

T3: human TNFR1 (human, UniProt P19438 30-455)
T3 construct: whole, on cells
T3 sequence (looked up): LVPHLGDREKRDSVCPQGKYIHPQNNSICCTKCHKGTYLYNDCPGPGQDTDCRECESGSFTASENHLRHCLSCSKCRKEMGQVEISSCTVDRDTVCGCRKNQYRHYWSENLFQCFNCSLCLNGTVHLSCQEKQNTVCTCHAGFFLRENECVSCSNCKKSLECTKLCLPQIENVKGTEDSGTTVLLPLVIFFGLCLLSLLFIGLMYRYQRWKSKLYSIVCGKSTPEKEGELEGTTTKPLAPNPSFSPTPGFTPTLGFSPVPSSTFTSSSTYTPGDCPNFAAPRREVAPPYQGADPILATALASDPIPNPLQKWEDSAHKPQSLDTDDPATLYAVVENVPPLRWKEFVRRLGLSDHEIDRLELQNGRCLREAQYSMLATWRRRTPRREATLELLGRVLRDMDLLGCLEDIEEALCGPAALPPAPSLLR

T4: cynomolgus monkey CD40 on cells (cynomolgus monkey, UniProt P25942 21-277 (human entry))
T4 construct: also called cyno CD40 on HEK293 cells; CD40 on cynomolgus monkey B cells
T4 chain: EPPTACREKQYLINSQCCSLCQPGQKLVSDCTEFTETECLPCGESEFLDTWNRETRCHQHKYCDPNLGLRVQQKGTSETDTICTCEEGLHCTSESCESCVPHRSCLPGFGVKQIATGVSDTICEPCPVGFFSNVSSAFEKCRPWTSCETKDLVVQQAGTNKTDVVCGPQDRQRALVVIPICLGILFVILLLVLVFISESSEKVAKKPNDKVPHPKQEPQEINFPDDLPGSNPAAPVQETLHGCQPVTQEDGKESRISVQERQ

B1: 33H6 (antibody, IgG4, V domains shown)
VH: QVQLVQSGAEVKKPGASVKVSCKASGYTFPGYYMYWLRQAPGQGLEWMGWINPDSGDTNYAQKFQGRVTMTRDTSISTAFMELSRLRSDDTAVYYCAREKPRYFDSFYYYLMDVWGQGTTVTVSS
VL: DIQMTQSPSSLSASVGDRVTITCRAGQNISRHLNWYQQNPGKAPKVLIHPASSLPSGVPSRFSGSGSGTDFSLTISSLQPEDFGTYFCQQSYSTPPTFGGGTKVELKR
notes: also called 4883-1
B2: 37A6 (antibody, IgG4, V domains shown)
VH: QVQLVESGGGLVKPGGSLRLSCAASEFTFSDYYMSWIRQAPGKGLEWVSYISRSGDTIYYADSVKGRFTISRDNAKNSLYLQMNGLRAEDTAVYYCARDLAAGATGGLDCWGQGTLVTVSS
VL: SYELTQPPSVSVSPGQTASITCSGERLGNKYICWYQQKPGQSPVLVIYQDFKRPSGIPERFSGSNSGITATLTISGTQAMDEADYYCQAWDSRTVVFGGGTKLTVLG
notes: also called 4865-1
B3: 29H10 (antibody, V domains shown)
VH: QVQLVQSGAEVTKPGASVKVSCKASGYTFAGYYMHWVRQAPGQGLEWMGWINPHSGGTNYAQKFQDRVTMTRDTSINTAYMELSRLRSDDTAVYYCARERISMVRGVGHNWFAPWGQGTLVTVSS
VL: DIQMTQSPSSLSASVGDRVTITCRASQDISNNLAWFQQKPGKPPKSLMYAASSLHSGVPSTFSGSGSGTDFTFTISSLQPEDFATYYCQQYNSYPLTFGGGTKVEIRR
notes: also called 4877-1
B4: 36F3 (antibody, IgG4, V domains shown)
VH: QVQLQQSGPGLVKPSQTLSLTCAISGDSVSSSRTAWNWIRQSPSRGLEWLGRTYYRSKWYHDYSVSVKSRITIDPDTSKNQFSLQLNSVTPEDTAVYYCARGAAPFDYWGQGTLVTVSS
VL: EIVLTQSPGTLSLSPGERATLSCRASQSVSSNYLAWYQQKPGQAPRALIYAASNRAAGISDRFSGSGSGTDFTLTISRLEPEDFAVYFCQQYGSSPLTFGGGTKVEIKR
notes: also called 4891-1

Experiments:
[1] = target: T5, human CD40 on cells (human, UniProt P25942 21-277); assay: flow cytometry, labelled CD40L on CD40-293T cells, antibody at 2.5 ug/ml
T5 construct: also called CD40 receptor on human B cells
Experimental: (§1) Percent ligand binding inhibition was calculated as [(CD40L binding gMFI in the absence of anti-CD40)−(CD40L binding gMFI in the presence of anti-CD40)]/(CD40L binding gMFI in the absence of anti-CD40). gMFI: geometric mean fluorescent intensity. All anti-CD40 antibodies show minimal effects on the ability of CD40L to bind to the CD40 receptor (Table 7).
Target sequence in this assay (P25942 21-277 limits assumed): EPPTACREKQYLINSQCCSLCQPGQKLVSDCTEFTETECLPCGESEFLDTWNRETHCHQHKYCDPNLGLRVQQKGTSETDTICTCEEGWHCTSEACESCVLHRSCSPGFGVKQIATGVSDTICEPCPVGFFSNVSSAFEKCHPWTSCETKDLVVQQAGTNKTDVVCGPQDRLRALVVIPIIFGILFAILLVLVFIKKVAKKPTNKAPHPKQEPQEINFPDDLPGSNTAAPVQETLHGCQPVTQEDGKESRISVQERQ

[2] = target: T5, human CD40 on cells; assay: cell-based or functional assay
Target sequence in this assay (P25942 21-277 limits assumed): as above

[3] = target: T5, human CD40 on cells; assay: cell-based or functional assay; remark: listed apart in the source
[4] = target: T1, human TNFR2; assay: flow cytometry, HEK293 transfectants
Experimental: (§2) The binding affinity of anti-human CD40 antibodies to human and cynomolgus monkey CD40 was measured by Octet assay (Table 3), quantifying association rate (Kon), disassociation rate (Kdis), and equilibrium binding constant (KD). Cross-reactivity of anti-CD40 antibodies to related TNF receptor superfamily (TNFRSF) members was evaluated by expressing human TNFR1, TNFR2, TNFR10, or TNFR14 on HEK293 cells by transient transfection of expression vectors encoding these genes. Binding of indicated anti-human CD40 antibody to these transfected cells was determined by flow cytometry. […] Cross-reactivity of anti-CD40 antibodies to cynomolgus monkey and mouse CD40 was evaluated by expressing cynomolgus monkey or mouse CD40 on HEK293 cells by transient transfection of expression vectors encoding these genes. Binding of indicated anti-human CD40 antibody to cells overexpressing cynomolgus monkey and mouse CD40 was determined by flow cytometry.

[5] = target: T2, human TNFR14; assay: flow cytometry, HEK293 transfectants
Experimental: as §2

[6] = target: T3, human TNFR1; assay: flow cytometry, HEK293 transfectants
Experimental: as §2

[7] = target: T1, human TNFR2; assay: flow cytometry, HEK293 transfectants vs control cells
Experimental: as §2

[8] = target: T2, human TNFR14; assay: as above
Experimental: as §2

[9] = target: T3, human TNFR1; assay: as above
Experimental: as §2

[10] = target: T4, cynomolgus monkey CD40 on cells; assay: as above
Experimental: as §2

[11] = target: T5, human CD40 on cells; assay: flow cytometry, labelled CD40L on CD40-293T cells, antibody at 20 ug/ml
Experimental: as §1
Target sequence in this assay (P25942 21-277 limits assumed): as above

[12] = target: T5, human CD40 on cells; assay: flow cytometry, labelled CD40L on CD40-293T cells, antibody at 5 ug/ml
Experimental: as §1
Target sequence in this assay (P25942 21-277 limits assumed): as above

[13] = target: T5, human CD40 on cells; assay: flow cytometry, labelled CD40L on CD40-293T cells, antibody at 10 ug/ml
Experimental: as §1
Target sequence in this assay (P25942 21-277 limits assumed): as above

Binder | Ligand Binding Inhibition (%) [1] | human B cell proliferation, no crosslinking, % Max Activity [2] | human B cell proliferation, no crosslinking, EC50 [2] | human B cell proliferation, with protein G crosslinking, % Max Activity [2] | human B cell proliferation, with protein G crosslinking, EC50 [2] | human B cell proliferation, no crosslinking, EC50 [3] | human B cell proliferation, no crosslinking, Max Fold Change [3] | human B cell proliferation, with protein G crosslinking, EC50 [3] | human B cell proliferation, with protein G crosslinking, Max Fold Change [3] | binding result [4] | binding result [5] | binding result [6] | fold over control (gMFI) [7] | fold over control (gMFI) [8] | fold over control (gMFI) [9] | fold over control (gMFI) [10] | Ligand Binding Inhibition (%) [11] | Ligand Binding Inhibition (%) [12] | Ligand Binding Inhibition (%) [13]
B1 | -8% | 6.5% | > 16.7 nM | 73.4% | 0.26 nM | > 16.7 nM | 1.21 fold | 0.237 nM | 18.2 fold | no binding | no binding | no binding | 0.81 fold | 0.8 fold | 1 fold | 74 fold | 7% | 4% | 11%
B2 | -19% | 0.4% | > 16.7 nM | 80.9% | 0.3 nM | > 16.7 nM | 1.19 fold | 0.504 nM | 27.1 fold | no binding | no binding | no binding | 0.87 fold | 0.87 fold | 0.99 fold | 92 fold | 12% | 2% | 6%
B3 | -11% | 4.4% | > 16.7 nM | 65.9% | 0.37 nM | > 16.7 nM | 1.35 fold | 0.235 nM | 18.2 fold | no binding | no binding | no binding | 0.88 fold | 0.84 fold | 0.98 fold | 71 fold | -7% | -8% | 1%
B4 | 1% | 8.2% | > 16.7 nM | 81.9% | 0.3 nM | > 16.7 nM | 1.83 fold | 0.558 nM | 16.9 fold | no binding | no binding | no binding | 0.92 fold | 0.88 fold | 0.99 fold | 82 fold | 1% | 10% | 14%
